Holding throughout (test): cell-based or functional assay
In experiment [1] the target is T1, human vasopressin V1b receptor (human), P47901.
T1 chain: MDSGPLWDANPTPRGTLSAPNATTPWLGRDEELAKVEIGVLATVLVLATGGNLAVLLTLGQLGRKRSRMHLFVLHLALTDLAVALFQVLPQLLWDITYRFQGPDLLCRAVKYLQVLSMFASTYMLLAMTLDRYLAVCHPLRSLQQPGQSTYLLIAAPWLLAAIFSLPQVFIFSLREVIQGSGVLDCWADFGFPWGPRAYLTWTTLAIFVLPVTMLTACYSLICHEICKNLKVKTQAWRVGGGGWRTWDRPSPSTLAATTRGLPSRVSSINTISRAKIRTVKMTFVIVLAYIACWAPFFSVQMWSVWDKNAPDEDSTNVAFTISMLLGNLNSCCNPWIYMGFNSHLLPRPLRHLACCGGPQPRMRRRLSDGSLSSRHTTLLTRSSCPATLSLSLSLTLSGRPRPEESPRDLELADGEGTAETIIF

The target of experiment [2] is human vasopressin V1a receptor (human), P37288.
Chain of human vasopressin V1a receptor (human), P37288 (P37288 whole entry): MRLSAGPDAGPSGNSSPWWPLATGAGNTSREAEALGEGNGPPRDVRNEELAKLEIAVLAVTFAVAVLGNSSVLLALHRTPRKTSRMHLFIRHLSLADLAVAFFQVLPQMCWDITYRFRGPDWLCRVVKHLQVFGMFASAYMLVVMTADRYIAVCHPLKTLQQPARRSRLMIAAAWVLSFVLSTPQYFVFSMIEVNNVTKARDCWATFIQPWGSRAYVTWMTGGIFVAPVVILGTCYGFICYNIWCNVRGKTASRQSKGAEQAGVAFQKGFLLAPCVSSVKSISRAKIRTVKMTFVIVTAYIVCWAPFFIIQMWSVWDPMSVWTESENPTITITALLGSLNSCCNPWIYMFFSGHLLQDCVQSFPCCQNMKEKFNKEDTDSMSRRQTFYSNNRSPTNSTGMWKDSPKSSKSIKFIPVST
Experiment [3] concerns the target T2, human oxytocin receptor (human), P30559.
T2 chain: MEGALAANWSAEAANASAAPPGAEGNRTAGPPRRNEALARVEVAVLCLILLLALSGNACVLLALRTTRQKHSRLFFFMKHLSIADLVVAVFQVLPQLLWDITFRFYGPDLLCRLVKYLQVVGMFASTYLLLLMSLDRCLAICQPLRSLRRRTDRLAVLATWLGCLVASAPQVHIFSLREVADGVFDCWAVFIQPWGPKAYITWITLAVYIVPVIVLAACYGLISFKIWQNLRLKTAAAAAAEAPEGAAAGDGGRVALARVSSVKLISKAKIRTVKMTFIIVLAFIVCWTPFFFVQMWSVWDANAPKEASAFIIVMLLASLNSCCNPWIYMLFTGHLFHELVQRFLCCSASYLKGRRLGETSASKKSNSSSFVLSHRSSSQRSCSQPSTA

Experiment [4] addresses human vasopressin V2 receptor (human), P30518.

As for UYIQNUPLG (not fully specified; modifications not checked) [d[C1,6U]-OT], the Emax, FLIPR calcium assay in experiment [1] was determined as 92%; in experiment [2] it was 100%; in experiment [3], 89%. Moreover, the Emax, IP-One HTRF assay in experiment [1] is 96%; in experiment [3] it was 72%. Moreover, the EC50, IP-One HTRF assay in experiment [3] was found to be 400 nM. In experiment [4], this molecule yielded an Emax, cAMP accumulation assay of 134%.

Source of the values: patent US20130130985A1.
